IntAct's records for PubMed 11238466

B1: CARD domain-containing protein E10 (Equine herpesvirus 2 (strain 86/87)), Q66677 (parent)
chain: MAEKYPLQAGDPCVTLTEEDIWDVERLCLEELRVLLVSHLKSHKHLDHLRAKKILSREDAEEVSSRATSRSRAGLLVDMCQDHPRGFQCLKESCKNEVGQEHLVDLLERAFEKHCGDKLTQKWWESGADGRNPRRPPGSEDNSGYTALLPTNPSGGGPSIGSGHSRPRGRDDSGGIGGGVYPFSHGGARVVGGGWGGWGESGGAGRGGSLLSGGHGGHPPHGGPGGGGRDYYGGGGSGYYESIPEPANFPNSGGGGRGGGVRYDAGGDGRLGGLPPDPQEVDDPSLSVQGRGGPAPDPPSPPLRTRRFFCC
partner: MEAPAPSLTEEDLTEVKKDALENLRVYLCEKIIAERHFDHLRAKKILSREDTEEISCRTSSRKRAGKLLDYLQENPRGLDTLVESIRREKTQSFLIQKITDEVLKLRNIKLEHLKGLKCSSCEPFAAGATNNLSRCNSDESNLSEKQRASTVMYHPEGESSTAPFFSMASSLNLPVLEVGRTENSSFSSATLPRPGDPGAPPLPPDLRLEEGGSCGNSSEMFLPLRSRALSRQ
B2: CARD domain-containing protein E10 (Equine herpesvirus 2 (strain 86/87)), Q66677 (parent)
chain: B1 chain
partner: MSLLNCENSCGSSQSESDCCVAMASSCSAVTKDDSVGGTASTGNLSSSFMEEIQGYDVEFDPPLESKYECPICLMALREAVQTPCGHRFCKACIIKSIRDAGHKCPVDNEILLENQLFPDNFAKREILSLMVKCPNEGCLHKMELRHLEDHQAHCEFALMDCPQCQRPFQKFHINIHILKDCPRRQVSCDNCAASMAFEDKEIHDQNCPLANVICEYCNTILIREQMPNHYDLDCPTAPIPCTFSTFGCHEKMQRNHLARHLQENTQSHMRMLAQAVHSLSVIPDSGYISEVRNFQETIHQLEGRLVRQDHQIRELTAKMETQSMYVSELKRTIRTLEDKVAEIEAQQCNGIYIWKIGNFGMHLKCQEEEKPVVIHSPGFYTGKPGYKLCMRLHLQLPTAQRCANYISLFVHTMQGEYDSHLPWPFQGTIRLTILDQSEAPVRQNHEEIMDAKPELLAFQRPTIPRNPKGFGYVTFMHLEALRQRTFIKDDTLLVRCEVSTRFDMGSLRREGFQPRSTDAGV

Variants of: B1
Conditions: with bcl10_mouse Bcl10, Q9Z0H7

Variant	effect of a mutation on the interaction
L49R	decreasing interaction

Variants of: B2
Conditions: with traf6_human TRAF6, Q9Y4K3

Variant	effect of a mutation on the interaction
P278G;E280A	decreasing interaction
